Source: US20240327504A1 (MABLOC, published 2024)

Target: SARS-CoV-2 Spike, WT (SARS-CoV-2, UniProt P0DTC2 14-1273)
Test: cell-based or functional assay

B1: MR22950 antibody (antibody, V domains shown)
VH: QLQLQESGPGLVKPSEPLSLTCAVSGGFIGTNWWTWIRQPPGKGLEWIGRISGSVGSTSYNPSLKSRVTISRDTSKNQFSLNLNSLTAADTAVYYCAREGRLDTLDWGQGVLVIVSS
VL: QSVLTQPPSASEAARKSVTISCSGSSSNIGSYSVSWYQQFPGTPPKLLIYFNDQRASGVSDRFSGSKSGTSASLAISGLQTEDEADYYCAGWDDSLNGVLFGGGTRLTVLG
- Neut50: 6 ng/mL
